Measured values published in publication PMC4495445.

B1: Gda1p: N41D (protein)
parent chain: MAPIFRNYRFAIGAFAVIMLILLIKTSSIGPPSIARTVTPNASIPKTPEDISILPVNDEPGYLQDSKTEQNYPELADAVKSQTSQTCSEEHKYVIMIDAGSTGSRVHIYKFDVCTSPPTLLDEKFDMLEPGLSSFDTDSVGAANSLDPLLKVAMNYVPIKARSCTPVAVKATAGLRLLGDAKSSKILSAVRDHLEKDYPFPVVEGDGVSIMGGDEEGVFAWITTNYLLGNIGANGPKLPTAAVFDLGGGSTQIVFEPTFPINEKMVDGEHKFDLKFGDENYTLYQFSHLGYGLKEGRNKVNSVLVENALKDGKILKGDNTKTHQLSSPCLPPKVNATNEKVTLESKETYTIDFIGPDEPSGAQCRFLTDEILNKDAQCQSPPCSFNGVHQPSLVRTFKESNDIYIFSYFYDRTRPLGMPLSFTLNELNDLARIVCKGEETWNSVFSGIAGSLDELESDSHFCLDLSFQVSLLHTGYDIPLQRELRTGKKIANKEIGWCLGASLPLLKADNWKCKIQSA
B2: Gda1p: N41D/N280D/N335D (protein)
parent chain: B1 parent chain
B3: Gda1p: N335D (protein)
parent chain: B1 parent chain
B4: Gda1p: N280D (protein)
parent chain: B1 parent chain

Test: DAPI staining after 24 h in sporulation medium
Settings: glycan lost; control: gda1Δ strain with wild-type GDA1

| Protein | other: sporulation efficiency |
| --- | --- |
| B1 | no change |
| B2 | no change |
| B3 | no change |
| B4 | no change |
